From PMC8333356 (Nature Communications, 2021)

Molecular target: receptor binding domain (RBD) of SARS-CoV-2 spike (SARS-CoV-2 Wuhan-Hu-1, UniProt P0DTC2)
Experiment: ELISA
Conditions: both partners purified

B1: Nb95 (VHH)
VHH: QVQLVESGGGLVQAGGSLRLSCAASGRTFSSYSMGWFRQAQGKEREFVATINGNGRDTYYTNSVKGRFTISRDDATNTVYLQMNSLKPEDTAIYYCAADKDVYYGYTSFPNEYEYWGQGTQVTVSS
notes: Cloned in pET-21b(+)
binding result: binds

B2: Nb21 (VHH)
VHH: QVQLVESGGGLVQAGGSLRLSCAVSGLGAHRVGWFRRAPGKEREFVAAIGANGGNTNYLDSVKGRFTISRDNAKNTIYLQMNSLKPQDTAVYYCAARDIETAEYTYWGQGTQVTVSS
notes: Cloned in pET-21b(+); also called class I Nb; source: E. coli BL21 (DE3), purified (cobalt resin, Superdex 75)
binding result: binds

B3: Nb34 (VHH)
VHH: DVQLVESGGGLVQAGGSLRLSCAASGFTFSNYVMYWGRQAPGKGREWVSGIDSDGSDTAYASSVKGRFTISRDNAKNTLYLQMNNLKPEDTALYYCVKSKDPYGSPWTRSEFDDYWGQGTQVTVSS
notes: Cloned in pET-21b(+)
binding result: binds

B4: Nb17 (VHH)
VHH: HVQLVESGGGLVQAGGSLRLSCAASGSIFSSNAMSWYRQAPGKQRELVASITSGGNADYADSVKGRFTISRDKNTVYPEMSSLKPADTAVYYCHAVGQEASAYAPRAYWGQGTQVTVSS
notes: Cloned in pET-21b(+); also called class III Nb; source: E. coli BL21 (DE3), purified (cobalt resin, Superdex 75)
binding result: binds
